Assay results from patent publication US20190330277A1.

Columns and labels:
[1] = target: 391-2-DS-Cav1-sc9 99C-362C; assay: ELISA, variant from culture supernatant on Ni-NTA plate
[2] = target: RB94 sc9 DS-CAV1 N183GC-N428C L373R Long; assay: as above
[3] = target: 391-2-DS-Cav1-sc9 99C-361C; assay: as above
[4] = target: 391-2 sc9 DS-Cav1 98C-362C; assay: as above
[5] = target: 391-2-DS-Cav1-sc9deleteFS 98C-362C; assay: as above
[6] = target: 391-2-DS-Cav1_ sc9_I28C-G464C; assay: as above
[7] = target: RB94 sc9 DS-CAV1 N183GC-N428C L373R Long K226L; assay: as above
[8] = target: 391-2-DS-Cav1-sc9 100C-362C; assay: as above
[9] = target: RB94 sc9 DS-CAV1 N183GC-N428C L373R; assay: as above
[10] = target: 391-2-DS-Cav1-BZGJ9deleteFS; assay: ELISA, variant from culture supernatant on Ni-NTA plate [continued]

Work on D25 antibody yielded an ELISA binding value [1] of 0.249, an ELISA binding value [2] of 0.26 and an ELISA binding value [3] of 0.225. It also gave an ELISA binding value [4] of 0.433, an ELISA binding value [5] of 0.362 and an ELISA binding value [6] of 0.202. It also gave an ELISA binding value [7] of 0.206, an ELISA binding value [8] of 0.274 and an ELISA binding value [9] of 0.187. It also gave an ELISA binding value [10] of 0.119.
